For orientation: Kd means a measure of binding affinity in units of concentration. Usually stoichiometry N stands for the number of molecules, sites or subunits per partner or assembly.

The chains are these.
B4: Upf2(933-1089)-His (domain or fragment, S. cerevisiae, UniProt P38798 933-1089, looked up)
chain: SDSDLEYGGDLDADRDIEMKRMYEEYERKLKDEEERKAEEELERQFQKMMQESIDARKSEKVVASKIPVISKPVSVQKPLLLKKSEEPSSSKETYEELSKPKKIAFTFLTKSGKKTQSRILQLPTDVKFVSDVLEEEEKLKTERNKIKKIVLKRSFD

For the data set “Upf2(933-1089)-His”, the target named is B4. In words: fluorescence polarisation. On the technique in general: Polarisation of emitted light reports the rotation of a fluorescent probe.
The target in data set [1] is T1, FITC-labeled Dcp2-UBD2 peptide (aa 694-718) (S. cerevisiae, UniProt P53550 694-718, FITC on the N-terminus).
T1 peptide (looked up): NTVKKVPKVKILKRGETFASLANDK
Kind of data set: fluorescence polarisation.

Data set [2] deals with T2, FITC-labeled Dcp2-UBD1 peptide (aa 456-479) (S. cerevisiae, UniProt P53550 456-479, FITC on the N-terminus).
T2 peptide (looked up): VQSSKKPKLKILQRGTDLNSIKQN
Kind of data set: fluorescence polarisation.

Data set [3] deals with the molecule itself. Kind of data set: SDS-PAGE band of the dimer.
The next data set concerns the target T3, CBP-Upf1-FL (S. cerevisiae, UniProt P30771 1-971).
T3 sequence (looked up): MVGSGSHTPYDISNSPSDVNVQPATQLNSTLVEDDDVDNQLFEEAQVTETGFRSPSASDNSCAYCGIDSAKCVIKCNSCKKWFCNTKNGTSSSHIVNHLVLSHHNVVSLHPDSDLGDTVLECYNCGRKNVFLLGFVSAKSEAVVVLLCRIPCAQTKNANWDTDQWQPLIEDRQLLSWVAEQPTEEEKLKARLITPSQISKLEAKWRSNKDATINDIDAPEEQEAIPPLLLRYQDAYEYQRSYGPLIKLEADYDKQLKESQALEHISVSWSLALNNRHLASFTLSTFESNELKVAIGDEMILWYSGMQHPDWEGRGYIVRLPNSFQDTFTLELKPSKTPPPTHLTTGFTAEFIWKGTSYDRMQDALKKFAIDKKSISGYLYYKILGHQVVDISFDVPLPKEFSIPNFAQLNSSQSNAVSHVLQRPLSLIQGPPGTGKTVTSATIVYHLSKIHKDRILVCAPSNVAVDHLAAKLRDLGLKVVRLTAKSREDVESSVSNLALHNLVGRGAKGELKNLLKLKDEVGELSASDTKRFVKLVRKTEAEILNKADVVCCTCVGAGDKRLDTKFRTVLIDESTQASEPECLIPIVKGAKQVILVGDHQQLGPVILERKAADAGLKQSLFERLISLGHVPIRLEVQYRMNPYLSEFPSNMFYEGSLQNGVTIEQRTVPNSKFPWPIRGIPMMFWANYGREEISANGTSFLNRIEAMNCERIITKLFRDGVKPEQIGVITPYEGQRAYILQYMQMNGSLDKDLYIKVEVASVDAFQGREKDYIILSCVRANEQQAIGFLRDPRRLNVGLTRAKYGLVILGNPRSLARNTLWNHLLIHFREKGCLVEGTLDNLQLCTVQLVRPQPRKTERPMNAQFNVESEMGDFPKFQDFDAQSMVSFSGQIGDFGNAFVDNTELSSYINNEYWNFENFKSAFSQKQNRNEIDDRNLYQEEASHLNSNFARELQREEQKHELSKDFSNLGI
Kind of data set: pull-down.

The target in another data set is T4, CBP-Upf1-CH-HD (S. cerevisiae, UniProt P30771 54-851).
T4 sequence (looked up): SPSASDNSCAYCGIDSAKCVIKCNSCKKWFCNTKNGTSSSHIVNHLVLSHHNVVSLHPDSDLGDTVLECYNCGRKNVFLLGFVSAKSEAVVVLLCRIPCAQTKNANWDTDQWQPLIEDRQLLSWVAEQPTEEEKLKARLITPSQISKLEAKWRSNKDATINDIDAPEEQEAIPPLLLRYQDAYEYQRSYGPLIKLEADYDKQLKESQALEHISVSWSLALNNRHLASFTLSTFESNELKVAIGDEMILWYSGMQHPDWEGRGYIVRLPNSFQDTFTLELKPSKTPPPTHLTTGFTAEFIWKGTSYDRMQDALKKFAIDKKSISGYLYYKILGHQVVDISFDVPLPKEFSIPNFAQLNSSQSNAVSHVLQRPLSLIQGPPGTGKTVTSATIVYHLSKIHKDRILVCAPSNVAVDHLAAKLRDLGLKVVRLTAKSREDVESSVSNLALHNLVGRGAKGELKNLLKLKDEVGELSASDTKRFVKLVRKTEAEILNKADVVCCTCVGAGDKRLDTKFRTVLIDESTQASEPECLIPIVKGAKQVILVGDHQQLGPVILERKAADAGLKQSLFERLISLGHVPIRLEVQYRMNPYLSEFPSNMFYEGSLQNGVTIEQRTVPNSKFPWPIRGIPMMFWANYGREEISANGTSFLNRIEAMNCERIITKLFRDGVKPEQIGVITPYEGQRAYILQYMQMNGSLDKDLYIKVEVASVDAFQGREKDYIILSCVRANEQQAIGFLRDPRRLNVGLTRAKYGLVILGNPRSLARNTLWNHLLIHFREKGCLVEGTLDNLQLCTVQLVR
In words: native gel or EMSA. (In general: A gel shift assay detects complexes by their altered migration in electrophoresis.)

In the next data set the target is T5, GST-Ebs1 (aa 1-591) (S. cerevisiae, UniProt Q03466 1-591).
T5 sequence (looked up): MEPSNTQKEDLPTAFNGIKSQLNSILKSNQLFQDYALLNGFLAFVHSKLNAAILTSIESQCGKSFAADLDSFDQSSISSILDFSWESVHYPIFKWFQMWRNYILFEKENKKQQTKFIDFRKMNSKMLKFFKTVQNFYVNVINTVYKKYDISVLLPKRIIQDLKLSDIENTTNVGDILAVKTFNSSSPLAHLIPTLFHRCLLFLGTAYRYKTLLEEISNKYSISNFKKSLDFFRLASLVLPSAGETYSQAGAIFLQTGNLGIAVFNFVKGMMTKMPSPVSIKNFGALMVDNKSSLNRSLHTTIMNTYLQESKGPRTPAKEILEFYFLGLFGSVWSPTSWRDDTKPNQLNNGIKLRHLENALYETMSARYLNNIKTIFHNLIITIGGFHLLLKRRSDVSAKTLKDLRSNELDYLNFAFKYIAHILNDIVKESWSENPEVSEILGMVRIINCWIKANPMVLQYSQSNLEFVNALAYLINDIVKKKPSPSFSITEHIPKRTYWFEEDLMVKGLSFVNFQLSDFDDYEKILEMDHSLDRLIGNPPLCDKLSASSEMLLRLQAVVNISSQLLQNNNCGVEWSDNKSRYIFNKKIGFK
In words: pull-down.

The next data set addresses T6, CBP-Upf1-CH-HD I693R (S. cerevisiae, UniProt P30771 54-851, I693R).
T6 sequence (looked up): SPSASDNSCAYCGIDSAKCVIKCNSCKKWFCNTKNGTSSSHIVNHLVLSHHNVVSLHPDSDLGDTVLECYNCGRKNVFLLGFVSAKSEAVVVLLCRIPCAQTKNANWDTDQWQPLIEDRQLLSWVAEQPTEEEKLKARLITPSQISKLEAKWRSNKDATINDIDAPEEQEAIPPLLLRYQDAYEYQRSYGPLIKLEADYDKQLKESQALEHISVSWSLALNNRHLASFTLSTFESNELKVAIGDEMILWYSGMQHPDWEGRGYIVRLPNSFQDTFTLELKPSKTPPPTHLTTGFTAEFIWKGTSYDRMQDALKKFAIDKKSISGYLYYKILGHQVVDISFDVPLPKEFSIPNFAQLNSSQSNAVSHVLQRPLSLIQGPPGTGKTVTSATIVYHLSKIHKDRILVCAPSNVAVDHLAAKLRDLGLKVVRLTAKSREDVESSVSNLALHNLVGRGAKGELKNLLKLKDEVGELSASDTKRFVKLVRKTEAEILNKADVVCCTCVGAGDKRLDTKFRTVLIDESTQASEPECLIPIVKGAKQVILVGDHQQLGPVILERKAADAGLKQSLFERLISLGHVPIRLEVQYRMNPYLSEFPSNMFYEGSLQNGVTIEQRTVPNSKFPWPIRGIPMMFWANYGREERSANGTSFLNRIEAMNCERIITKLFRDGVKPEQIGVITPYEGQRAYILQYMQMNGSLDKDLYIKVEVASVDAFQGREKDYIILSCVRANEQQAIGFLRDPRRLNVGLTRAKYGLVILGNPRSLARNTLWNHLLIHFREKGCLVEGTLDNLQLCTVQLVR
In words: pull-down.

B1: CBP-Upf1-CH-His (domain or fragment)
chain: SPSASDNSCAYCGIDSAKCVIKCNSCKKWFCNTKNGTSSSHIVNHLVLSHHNVVSLHPDSDLGDTVLECYNCGRKNVFLLGFVSAKSEAVVVLLCRIPCAQTKNANWDTDQWQPLIEDRQLLSWVAEQPTEEEKLKARLITPSQISKLEAKWRSNKDATINDIDAPE
B1: the results for the Kd (in the data set with Upf2(933-1089)-His; in data set [1]; in data set [2]) were 0.43 µM, 25.1 µM and 60.1 µM, respectively. Also, in data set [3], the “stoichiometry N” value worked out at 2.

B2: His-tagged Nmd4 (natural protein, S. cerevisiae, UniProt Q12129 1-218, looked up)
chain: MTQYNFIIDASAFEKGLGNIKRWCSDCTEAVTLNFYIPTFTLNELDFLQQRRKSFAARESLKFIDRLDDSKFANLKVFIEFPEVLDIILWSDVMEHNDSSGKINIAKLPKRLKNLLKSCIYKCYLEGNEGLHWFLISEDPQIREMAMQCNIPSCSIVDVDSILSKDMNDKSFRESEKFNNMMLKNGTKEESENGREIIRTNFNKTVYASRGTGELWSP
For B2, the binding result with CBP-Upf1-FL and in the data set with CBP-Upf1-CH-HD was “binds” in each case.

B3: CBP-Upf1-Ct (domain or fragment, S. cerevisiae, UniProt P30771 852-971, looked up)
chain: PQPRKTERPMNAQFNVESEMGDFPKFQDFDAQSMVSFSGQIGDFGNAFVDNTELSSYINNEYWNFENFKSAFSQKQNRNEIDDRNLYQEEASHLNSNFARELQREEQKHELSKDFSNLGI
Turning to B3, the binding result with GST-Ebs1 (aa 1-591) was “binds”.
Regarding B4, in the data set with CBP-Upf1-CH-HD I693R, the binding result is listed as “binds”.

(Values after publication doi:10.1101/2024.12.18.629111 (bioRxiv, 2024).)
